{"source": "paper PMC8550791", "molecular_target": "K48-linked pentaubiquitin (UniProt P0CG48)"}
{"substance": "MINDY1 P138A (residues 110-384) (from UniProt Q8N5J2 110-384) (domain or fragment)", "values": [{"measurement": "Km of steady-state kinetics of cleavage of fluorescently labeled K48-linked pentaUb, against MINDY1 WT", "value": 3, "unit": "fold lower"}]}
